Data taken from publication PMC8298264, “Function of cofactor Akirin2 in the regulation of gene expression in model human neutrophil-like HL60 cells” (Bioscience Reports, 2021).

B1: sp¦P51159¦RB27A_HUMAN (protein, UniProt P51159 2-221, looked up)
Ras-related protein Rab-27A: SDGDYDYLIKFLALGDSGVGKTSVLYQYTDGKFNSKFITTVGIDFREKRVVYRASGPDGATGRGQRIHLQLWDTAGQERFRSLTTAFFRDAMGFLLLFDLTNEQSFLNVRNWISQLQMHAYCENPDIVLCGNKSDLEDQRVVKEEEAIALAEKYGIPYFETSAANGTNISQAIEMLLDLIMKRMERCVDKSWIPEGVVRSNGHASTDQLSEEKEKGACGC
B2: sp¦O96011¦PX11B_HUMAN (protein, UniProt O96011 1-259, looked up)
Peroxisomal membrane protein …: MDAWVRFSAQSQARERLCRAAQYACSLLGHALQRHGASPELQKQIRQLESHLSLGRKLLRLGNSADALESAKRAVHLSDVVLRFCITVSHLNRALYFACDNVLWAGKSGLAPRVDQEKWAQRSFRYYLFSLIMNLSRDAYEIRLLMEQESSACSRRLKGSGGGVPGGSETGGLGGPGTPGGGLPQLALKLRLQVLLLARVLRGHPPLLLDVVRNACDLFIPLDKLGLWRCGPGIVGLCGLVSSILSILTLIYPWLRLKP
B3: sp¦Q9NVJ2¦ARL8B_HUMAN (protein, UniProt Q9NVJ2 1-186, looked up)
ADP-ribosylation factor-like …: MLALISRLLDWFRSLFWKEEMELTLVGLQYSGKTTFVNVIASGQFSEDMIPTVGFNMRKVTKGNVTIKIWDIGGQPRFRSMWERYCRGVNAIVYMIDAADREKIEASRNELHNLLDKPQLQGIPVLVLGNKRDLPNALDEKQLIEKMNLSAIQDREICCYSISCKEKDNIDITLQWLIQHSKSRRS
B4: sp¦Q9NVA1¦UQCC1_HUMAN (protein, UniProt Q9NVA1 1-299, looked up)
Ubiquinol-cytochrome c …: MALLVRVLRNQTSISQWVPVCSRLIPVSPTQGQGDRALSRTSQWPQMSQSRACGGSEQIPGIDIQLNRKYHTTRKLSTTKDSPQPVEEKVGAFTKIIEAMGFTGPLKYSKWKIKIAALRMYTSCVEKTDFEEFFLRCQMPDTFNSWFLITLLHVWMCLVRMKQEGRSGKYMCRIIVHFMWEDVQQRGRVMGVNPYILKKNMILMTNHFYAAILGYDEGILSDDHGLAAALWRTFFNRKCEDPRHLELLVEYVRKQIQYLDSMNGEDLLLTGEVSWRPLVEKNPQSILKPHSPTYNDEGL
B5: sp¦P51148¦RAB5C_HUMAN (protein, UniProt P51148 1-216, looked up)
Ras-related protein Rab-5C: MAGRGGAARPNGPAAGNKICQFKLVLLGESAVGKSSLVLRFVKGQFHEYQESTIGAAFLTQTVCLDDTTVKFEIWDTAGQERYHSLAPMYYRGAQAAIVVYDITNTDTFARAKNWVKELQRQASPNIVIALAGNKADLASKRAVEFQEAQAYADDNSLLFMETSAKTAMNVNEIFMAIAKKLPKNEPQNATGAPGRNRGVDLQENNPASRSQCCSN
B6: sp¦O60488¦ACSL4_HUMAN (protein, UniProt O60488 1-711, looked up)
Long-chain-fatty-acid--CoA …: MKLKLNVLTIILLPVHLLITIYSALIFIPWYFLTNAKKKNAMAKRIKAKPTSDKPGSPYRSVTHFDSLAVIDIPGADTLDKLFDHAVSKFGKKDSLGTREILSEENEMQPNGKVFKKLILGNYKWMNYLEVNRRVNNFGSGLTALGLKPKNTIAIFCETRAEWMIAAQTCFKYNFPLVTLYATLGKEAVVHGLNESEASYLITSVELLESKLKTALLDISCVKHIIYVDNKAINKAEYPEGFEIHSMQSVEELGSNPENLGIPPSRPTPSDMAIVMYTSGSTGRPKGVMMHHSNLIAGMTGQCERIPGLGPKDTYIGYLPLAHVLELTAEISCFTYGCRIGYSSPLTLSDQSSKIKKGSKGDCTVLKPTLMAAVPEIMDRIYKNVMSKVQEMNYIQKTLFKIGYDYKLEQIKKGYDAPLCNLLLFKKVKALLGGNVRMMLSGGAPLSPQTHRFMNVCFCCPIGQGYGLTESCGAGTVTEVTDYTTGRVGAPLICCEIKLKDWQEGGYTINDKPNPRGEIVIGGQNISMGYFKNEEKTAEDYSVDENGQRWFCTGDIGEFHPDGCLQIIDRKKDLVKLQAGEYVSLGKVEAALKNCPLIDNICAFAKSDQSYVISFVVPNQKRLTLLAQQKGVEGTWVDICNNPAMEAEILKEIREAANAMKLERFEIPIKVRLSPEPWTPETGLVTDAFKLKRKELRNHYLKDIERMYGGK
B7: sp¦P27105¦STOM_HUMAN (protein, UniProt P27105 1-288, looked up)
Stomatin: MAEKRHTRDSEAQRLPDSFKDSPSKGLGPCGWILVAFSFLFTVITFPISIWMCIKIIKEYERAIIFRLGRILQGGAKGPGLFFILPCTDSFIKVDMRTISFDIPPQEILTKDSVTISVDGVVYYRVQNATLAVANITNADSATRLLAQTTLRNVLGTKNLSQILSDREEIAHNMQSTLDDATDAWGIKVERVEIKDVKLPVQLQRAMAAEAEASREARAKVIAAEGEMNASRALKEASMVITESPAALQLRYLQTLTTIAAEKNSTIVFPLPIDMLQGIIGAKHSHLG
B8: sp¦P16615¦AT2A2_HUMAN (protein, UniProt P16615 1-1042, looked up)
Sarcoplasmic/endoplasmic …: MENAHTKTVEEVLGHFGVNESTGLSLEQVKKLKERWGSNELPAEEGKTLLELVIEQFEDLLVRILLLAACISFVLAWFEEGEETITAFVEPFVILLILVANAIVGVWQERNAENAIEALKEYEPEMGKVYRQDRKSVQRIKAKDIVPGDIVEIAVGDKVPADIRLTSIKSTTLRVDQSILTGESVSVIKHTDPVPDPRAVNQDKKNMLFSGTNIAAGKAMGVVVATGVNTEIGKIRDEMVATEQERTPLQQKLDEFGEQLSKVISLICIAVWIINIGHFNDPVHGGSWIRGAIYYFKIAVALAVAAIPEGLPAVITTCLALGTRRMAKKNAIVRSLPSVETLGCTSVICSDKTGTLTTNQMSVCRMFILDRVEGDTCSLNEFTITGSTYAPIGEVHKDDKPVNCHQYDGLVELATICALCNDSALDYNEAKGVYEKVGEATETALTCLVEKMNVFDTELKGLSKIERANACNSVIKQLMKKEFTLEFSRDRKSMSVYCTPNKPSRTSMSKMFVKGAPEGVIDRCTHIRVGSTKVPMTSGVKQKIMSVIREWGSGSDTLRCLALATHDNPLRREEMHLEDSANFIKYETNLTFVGCVGMLDPPRIEVASSVKLCRQAGIRVIMITGDNKGTAVAICRRIGIFGQDEDVTSKAFTGREFDELNPSAQRDACLNARCFARVEPSHKSKIVEFLQSFDEITAMTGDGVNDAPALKKAEIGIAMGSGTAVAKTASEMVLADDNFSTIVAAVEEGRAIYNNMKQFIRYLISSNVGEVVCIFLTAALGFPEALIPVQLLWVNLVTDGLPATALGFNPPDLDIMNKPPRNPKEPLISGWLFFRYLAIGCYVGAATVGAAAWWFIAADGGPRVSFYQLSHFLQCKEDNPDFEGVDCAIFESPYPMTMALSVLVTIEMCNALNSLSENQSLLRMPPWENIWLVGSICLSMSLHFLILYVEPLPLIFQITPLNVTQWLMVLKISLPVILMDETLKFVARNYLEPGKECVQPATKSCSFSACTDGISWPFVLLIMPLVIWVYSTDTNFSDMFWS
B9: sp¦Q15645¦PCH2_HUMAN (protein, UniProt Q15645 1-432, looked up)
Pachytene checkpoint protein …: MDEAVGDLKQALPCVAESPTVHVEVHQRGSSTAKKEDINLSVRKLLNRHNIVFGDYTWTEFDEPFLTRNVQSVSIIDTELKVKDSQPIDLSACTVALHIFQLNEDGPSSENLEEETENIIAANHWVLPAAEFHGLWDSLVYDVEVKSHLLDYVMTTLLFSDKNVNSNLITWNRVVLLHGPPGTGKTSLCKALAQKLTIRLSSRYRYGQLIEINSHSLFSKWFSESGKLVTKMFQKIQDLIDDKDALVFVLIDEVESLTAARNACRAGTEPSDAIRVVNAVLTQIDQIKRHSNVVILTTSNITEKIDVAFVDRADIKQYIGPPSAAAIFKIYLSCLEELMKCQIIYPRQQLLTLRELEMIGFIENNVSKLSLLLNDISRKSEGLSGRVLRKLPFLAHALYVQAPTVTIEGFLQALSLAVDKQFEERKKLAAYI
B10: sp¦P21964¦COMT_HUMAN (protein, UniProt P21964 1-271, looked up)
Catechol O-methyltransferase: MPEAPPLLLAAVLLGLVLLVVLLLLLRHWGWGLCLIGWNEFILQPIHNLLMGDTKEQRILNHVLQHAEPGNAQSVLEAIDTYCEQKEWAMNVGDKKGKIVDAVIQEHQPSVLLELGAYCGYSAVRMARLLSPGARLITIEINPDCAAITQRMVDFAGVKDKVTLVVGASQDIIPQLKKKYDVDTLDMVFLDHWKDRYLPDTLLLEECGLLRKGTVLLADNVICPGAPDFLAHVRGSSCFECTHYQSFLEYREVVDGLEKAIYKGPGSEAGP
B11: sp¦P61019¦RAB2A_HUMAN (protein, UniProt P61019 2-212, looked up)
Ras-related protein Rab-2A: AYAYLFKYIIIGDTGVGKSCLLLQFTDKRFQPVHDLTIGVEFGARMITIDGKQIKLQIWDTAGQESFRSITRSYYRGAAGALLVYDITRRDTFNHLTTWLEDARQHSNSNMVIMLIGNKSDLESRREVKKEEGEAFAREHGLIFMETSAKTASNVEEAFINTAKEIYEKIQEGVFDINNEANGIKIGPQHAATNATHAGNQGGQQAGGGCC
B12: sp¦Q9BVC6¦TM109_HUMAN (protein, UniProt Q9BVC6 34-243, looked up)
Voltage-gated monoatomic …: QSRRDFAPPGQQKREAPVDVLTQIGRSVRGTLDAWIGPETMHLVSESSSQVLWAISSAISVAFFALSGIAAQLLNALGLAGDYLAQGLKLSPGQVQTFLLWGAGALVVYWLLSLLLGLVLALLGRILWGLKLVIFLAGFVALMRSVPDPSTRALLLLALLILYALLSRLTGSRASGAQLEAKVRGLERQVEELRWRQRRAAKGARSVEEE
B13: sp¦Q9H939¦PPIP2_HUMAN (protein, UniProt Q9H939 1-334, looked up)
Proline-serine-threonine …: MTRSLFKGNFWSADILSTIGYDNIIQHLNNGRKNCKEFEDFLKERAAIEERYGKDLLNLSRKKPCGQSEINTLKRALEVFKQQVDNVAQCHIQLAQSLREEARKMEEFREKQKLQRKKTELIMDAIHKQKSLQFKKTMDAKKNYEQKCRDKDEAEQAVSRSANLVNPKQQEKLFVKLATSKTAVEDSDKAYMLHIGTLDKVREEWQSEHIKACEAFEAQECERINFFRNALWLHVNQLSQQCVTSDEMYEQVRKSLEMCSIQRDIEYFVNQRKTGQIPPAPIMYENFYSSQKNAVPAGKATGPNLARRGPLPIPKSSPDDPNYSLVDDYSLLYQ
B14: sp¦Q9Y3A6¦TMED5_HUMAN (protein, UniProt Q9Y3A6 28-229, looked up)
Transmembrane emp24 …: FTPSLDSDFTFTLPAGQKECFYQPMPLKASLEIEYQVLDGAGLDIDFHLASPEGKTLVFEQRKSDGVHTVETEVGDYMFCFDNTFSTISEKVIFFELILDNMGEQAQEQEDWKKYITGTDILDMKLEDILESINSIKSRLSKSGHIQTLLRAFEARDRNIQESNFDRVNFWSMVNLVVMVVVSAIQVYMLKSLFEDKRKSRT

Tested on: human HL60 cells
Experiment: SWATH-MS proteomics, differential protein representation, akirin2 KO vs WT HL60 cells
Format: cell-based
Details: KO vs WT HL60 cells; sheet "Under-represented in KO"
In short: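 Differential representation compares akirin2 KO with WT HL60 across three biological replicates, 5 µg digest each, acquired by data-independent SWATH on a 120-min gradient. Library built from combined IDA runs searched with Paragon; proteins accepted at 1% FDR, with total-area-sum normalization.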

First: B1
Second: B2
The “Fold Change” value of the first is higher: 0.5507 for the first, 0.5344 for the second.

Compared with B3, B4 is lower in “Fold Change” value: 0.5417 for the first, 0.5349 for the second.

First: B5
Second: B6
The “Fold Change” value of the first is higher: 0.5435 for the first, 0.5384 for the second.

First: B7
Second: B8
The “Fold Change” value of the first is higher: 0.5492 for the first, 0.5392 for the second.

B1 and B2 are within 0.2 log units of each other in “Log (Fold Change)” value: -0.2591 for the first, -0.2721 for the second.

B3 and B4 are within 0.2 log units of each other in “Log (Fold Change)” value: -0.2663 for the first, -0.2718 for the second.

B5 and B6 are within 0.2 log units of each other in “Log (Fold Change)” value: -0.2648 for the first, -0.2689 for the second.

B7 and B8 are within 0.2 log units of each other in “Log (Fold Change)” value: -0.2603 for the first, -0.2682 for the second.

Same assay, conditions: KO vs WT; akirin2 KO vs WT HL60 cells; sheet "Under-represented in KO"

Compared with B9, B10 is higher in “Fold Change” value: 0.5524 for the first, 0.567 for the second.

First: B11
Second: B12
The “Fold Change” value of the first is higher: 0.5636 for the first, 0.5517 for the second.

B13 was tested, and the “Fold Change” value was 0.5689.

B9 and B10 are within 0.2 log units of each other in “Log (Fold Change)” value: -0.2577 for the first, -0.2464 for the second.

B11 and B12 are within 0.2 log units of each other in “Log (Fold Change)” value: -0.249 for the first, -0.2583 for the second.

In the case of B13, the “Log (Fold Change)” value is reported as -0.2449.

Same assay, conditions: akirin2 KO vs WT HL60 cells; sheet "Under-represented in KO"

For B14, the “Fold Change” value was 0.2554.

With B14 the “Log (Fold Change)” value was -0.5928.
